According to paper PMC9700851, “Interaction kinetics between p115-RhoGEF and Gα13 are determined by unique molecular interactions affecting agonist sensitivity” (Communications Biology, 2022):

T1: Gα13(135)R128A (mouse, UniProt P27601 1-377, R128A)
T1 construct: Gα13, mouse; also called Gα13-R128A; source: HEK293T, transfected, in intact cells
T1 sequence (looked up): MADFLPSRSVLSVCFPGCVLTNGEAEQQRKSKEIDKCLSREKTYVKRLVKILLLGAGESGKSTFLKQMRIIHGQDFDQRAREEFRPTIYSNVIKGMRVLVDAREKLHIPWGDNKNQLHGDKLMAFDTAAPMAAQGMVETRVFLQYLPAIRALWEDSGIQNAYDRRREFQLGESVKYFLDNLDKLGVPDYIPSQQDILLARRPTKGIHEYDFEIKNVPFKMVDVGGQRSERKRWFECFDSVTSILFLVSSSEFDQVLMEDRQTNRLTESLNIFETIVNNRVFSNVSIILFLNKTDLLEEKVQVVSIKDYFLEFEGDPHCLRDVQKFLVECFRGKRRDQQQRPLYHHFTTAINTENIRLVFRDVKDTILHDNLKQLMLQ

T2: Gα13(135) (mTurquoise2 between amino acids 135 and 136) (mouse, UniProt P27601 1-377)
T2 construct: Gα13, mouse; Gibson assembly; also called wt-Gα13; source: HEK293T, transfected, in intact cells
T2 sequence (looked up): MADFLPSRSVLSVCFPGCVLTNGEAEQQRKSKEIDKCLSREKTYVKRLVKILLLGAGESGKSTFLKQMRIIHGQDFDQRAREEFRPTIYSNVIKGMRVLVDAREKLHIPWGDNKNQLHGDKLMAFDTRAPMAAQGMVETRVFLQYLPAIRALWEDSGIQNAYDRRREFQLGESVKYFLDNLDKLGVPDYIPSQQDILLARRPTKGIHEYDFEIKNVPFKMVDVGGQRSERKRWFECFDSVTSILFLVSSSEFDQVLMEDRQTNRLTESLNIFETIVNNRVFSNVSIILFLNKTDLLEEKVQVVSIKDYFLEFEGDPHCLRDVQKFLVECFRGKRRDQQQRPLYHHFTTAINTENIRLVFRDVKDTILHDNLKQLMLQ

T3: Gα13-mTurq2 (mTurquoise2 between amino acids 127 and 128) (mouse, UniProt P27601 1-377)
T3 construct: Gα13, mouse; co-expressed with human TPα receptor, human Gβ1 and bovine Gγ2; also called Gα13(127); mTurq2-Gα13; source: HEK293T, transfected, in intact cells; not shown: mTurquoise2, internal (after residue 127), kept
T3 sequence (looked up): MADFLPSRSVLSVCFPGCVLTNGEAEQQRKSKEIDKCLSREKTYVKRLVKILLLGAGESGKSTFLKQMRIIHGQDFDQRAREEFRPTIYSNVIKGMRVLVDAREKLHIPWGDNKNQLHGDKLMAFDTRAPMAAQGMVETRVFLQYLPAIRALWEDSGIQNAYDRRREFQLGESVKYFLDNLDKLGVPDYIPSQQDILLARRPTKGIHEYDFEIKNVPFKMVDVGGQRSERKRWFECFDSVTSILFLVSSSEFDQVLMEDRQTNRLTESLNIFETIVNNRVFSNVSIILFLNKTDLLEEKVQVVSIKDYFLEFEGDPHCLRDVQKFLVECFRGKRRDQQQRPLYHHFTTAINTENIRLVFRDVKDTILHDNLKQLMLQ


What was measured:
Test in all cases: FRET or BRET; single-cell FRET in intact HEK293T cells co-transfected with TPα receptor, Gβ1 and Gγ2; donor mTurquoise2 (or CFP) on the Gα subunit, acceptor YFP on the RhoGEF; F535/F480 emission ratio on superfusion with the agonist U-46619 and after its washout (AUC of decay over the 10 min washout); room temperature, buffer pH 7.3
[1] = target: Gα13-mTurq2 (mTurquoise2 between amino acids 127 and 128) (mouse) (UniProt P27601)
Gα13(135)R128A = target: T1, Gα13(135)R128A
[2] = target: Gα13(135) (mTurquoise2 between amino acids 135 and 136) (mouse) (UniProt P27601)
Gα13(135)R128A (mouse) = Gα13(135)R128A (mouse) (UniProt P27601)
[3] = target: T2, Gα13(135) (mTurquoise2 between amino …); conditions: partners not purified
[4] = target: T3, Gα13-mTurq2 (mTurquoise2 between amino …); conditions: partners not purified

Sequence of eYFP-p115-RhoGEF (Q61210 whole entry): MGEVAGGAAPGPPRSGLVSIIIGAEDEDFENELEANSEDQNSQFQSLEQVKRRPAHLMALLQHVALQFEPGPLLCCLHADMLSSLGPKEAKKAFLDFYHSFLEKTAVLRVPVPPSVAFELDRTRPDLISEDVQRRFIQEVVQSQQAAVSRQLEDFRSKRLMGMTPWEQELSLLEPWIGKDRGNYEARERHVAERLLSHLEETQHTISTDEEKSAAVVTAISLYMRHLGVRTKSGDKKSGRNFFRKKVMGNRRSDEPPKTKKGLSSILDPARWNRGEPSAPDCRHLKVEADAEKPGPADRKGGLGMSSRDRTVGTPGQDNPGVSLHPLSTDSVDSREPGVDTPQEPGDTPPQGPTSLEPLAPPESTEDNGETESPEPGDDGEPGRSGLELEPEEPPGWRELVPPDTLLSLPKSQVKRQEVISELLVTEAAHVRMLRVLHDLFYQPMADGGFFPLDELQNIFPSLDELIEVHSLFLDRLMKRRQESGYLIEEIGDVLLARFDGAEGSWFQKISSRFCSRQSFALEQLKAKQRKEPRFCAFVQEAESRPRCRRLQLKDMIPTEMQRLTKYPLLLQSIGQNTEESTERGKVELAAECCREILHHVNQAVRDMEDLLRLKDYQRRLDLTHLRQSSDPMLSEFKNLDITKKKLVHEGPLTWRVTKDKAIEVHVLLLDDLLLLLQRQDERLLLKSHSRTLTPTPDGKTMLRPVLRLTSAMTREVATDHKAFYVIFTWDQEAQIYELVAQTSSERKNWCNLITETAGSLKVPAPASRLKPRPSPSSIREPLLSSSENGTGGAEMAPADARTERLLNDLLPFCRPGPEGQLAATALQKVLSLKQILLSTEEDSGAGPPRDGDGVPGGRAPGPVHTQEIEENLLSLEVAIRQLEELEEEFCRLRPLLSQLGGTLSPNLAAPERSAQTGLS
Sequence of p115-R (p115-RhoGEF amino acids 1-245) (Q61210 1-245): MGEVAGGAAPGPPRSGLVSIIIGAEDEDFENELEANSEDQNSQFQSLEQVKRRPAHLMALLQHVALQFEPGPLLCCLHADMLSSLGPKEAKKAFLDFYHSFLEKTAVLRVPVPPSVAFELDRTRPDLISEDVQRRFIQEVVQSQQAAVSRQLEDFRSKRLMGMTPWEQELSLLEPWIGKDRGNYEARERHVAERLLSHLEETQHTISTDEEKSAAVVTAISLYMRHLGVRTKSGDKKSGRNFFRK
Sequence of p115-Rshort (p115-RhoGEF amino acids 34-235) (Q61210 34-235): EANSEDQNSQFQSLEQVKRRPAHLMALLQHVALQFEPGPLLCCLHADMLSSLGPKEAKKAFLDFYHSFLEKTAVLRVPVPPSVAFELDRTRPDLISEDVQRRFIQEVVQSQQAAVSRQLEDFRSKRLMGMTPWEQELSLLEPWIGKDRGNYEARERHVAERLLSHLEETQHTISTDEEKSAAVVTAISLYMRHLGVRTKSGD

| Molecule | mean AUC of decay of the FRET signal after agonist washout (arbitrary unit) [1] | mean AUC of decay of the FRET signal after agonist washout [4] | other results |
| --- | --- | --- | --- |
| p115-R (p115-RhoGEF amino acids 1-245) (from UniProt Q61210 1-245) (domain or fragment) | 343 | – | – |
| p115-E32G (from UniProt Q61210 1-920) (natural protein) | 468 | – | mean AUC of decay of the FRET signal after agonist washout (arbitrary unit) (Gα13(135)R128A): 444; mean AUC of decay of the FRET signal after agonist washout (arbitrary unit) [2]: 453 |
| Chimera1 (p115-RhoGEF amino acids 1-232 and LARG amino acids 559-1544) (from UniProt Q61210 1-232; Q9NZN5 559-1544) | 270 | – | – |
| p115-Rshort (p115-RhoGEF amino acids 34-235) (from UniProt Q61210 34-235) (domain or fragment) | 444 | – | – |
| Chimera 2 (full length p115 with the RH domain of LARG, amino acids 370-558, instead of p115 amino acids 44-232) (from UniProt Q61210 1-43; Q9NZN5 370-558; Q61210 233-912) | 274 | – | – |
| eYFP-p115-RhoGEF (from UniProt Q61210 1-920) (natural protein) | 331 | – | mean AUC of decay of the FRET signal after agonist washout (arbitrary unit) (Gα13(135)R128A (mouse)): 417; mean AUC of decay of the FRET signal after agonist washout (arbitrary unit) [2]: 284 |
| Chimera 3 (full length LARG with the RH domain of p115, amino acids 44-232, instead of LARG amino acids 370-558) (from UniProt Q9NZN5 1-369; Q61210 44-232; Q9NZN5 559-1544) | 404 | – | – |
| eYFP-human LARG (leukemia-associated RhoGEF) (natural protein, UniProt Q9NZN5 1-1544, looked up, LARG (leukemia-associated RhoGEF), human; also called YFP-LARG; wt-LARG; source: HEK293T, transfected, in intact cells; not shown: YFP, N-terminal, kept) MSGTQSTITDRFPLKKPIRHGSILNRESPTDKKQKVERIASHDFDPTDSSSKKTKSSSEESRSEIYGLVQRCVIIQKDDNGFGLTVSGDNPVFVQSVKEDGAAMRAGVQTGDRIIKVNGTLVTHSNHLEVVKLIKSGSYVALTVQGRPPGSPQIPLADSEVEPSVIGHMSPIMTSPHSPGASGNMERITSPVLMGEENNVVHNQKVEILRKMLQKEQERLQLLQEDYNRTPAQRLLKEIQEAKKHIPQLQEQLSKATGSAQDGAVVTPSRPLGDTLTVSEAETDPGDVLGRTDCSSGDASRPSSDNADSPKSGPKERIYLEENPEKSETIQDTDTQSLVGSPSTRIAPHIIGAEDDDFGTEHEQINGQCSCFQSIELLKSRPAHLAVFLHHVVSQFDPATLLCYLYSDLYKHTNSKETRRIFLEFHQFFLDRSAHLKVSVPDEMSADLEKRRPELIPEDLHRHYIQTMQERVHPEVQRHLEDFRQKRSMGLTLAESELTKLDAERDKDRLTLEKERTCAEQIVAKIEEVLMTAQAVEEDKSSTMQYVILMYMKHLGVKVKEPRNLEHKRGRIGFLPKIKQSMKKDKEGEEKGKRRGFPSILGPPRRPSRHDNSAIGRAMELQKARHPKHLSTPSSVSPEPQDSAKLRQSGLANEGTDAGYLPANSMSSVASGASFSQEGGKENDTGSKQVGETSAPGDTLDGTPRTLNTVFDFPPPPLDQVQEEECEVERVTEHGTPKPFRKFDSVAFGESQSEDEQFENDLETDPPNWQQLVSREVLLGLKPCEIKRQEVINELFYTERAHVRTLKVLDQVFYQRVSREGILSPSELRKIFSNLEDILQLHIGLNEQMKAVRKRNETSVIDQIGEDLLTWFSGPGEEKLKHAAATFCSNQPFALEMIKSRQKKDSRFQTFVQDAESNPLCRRLQLKDIIPTQMQRLTKYPLLLDNIAKYTEWPTEREKVKKAADHCRQILNYVNQAVKEAENKQRLEDYQRRLDTSSLKLSEYPNVEELRNLDLTKRKMIHEGPLVWKVNRDKTIDLYTLLLEDILVLLQKQDDRLVLRCHSKILASTADSKHTFSPVIKLSTVLVRQVATDNKALFVISMSDNGAQIYELVAQTVSEKTVWQDLICRMAASVKEQSTKPIPLPQSTPGEGDNDEEDPSKLKEEQHGISVTGLQSPDRDLGLESTLISSKPQSHSLSTSGKSEVRDLFVAERQFAKEQHTDGTLKEVGEDYQIAIPDSHLPVSEERWALDALRNLGLLKQLLVQQLGLTEKSVQEDWQHFPRYRTASQGPQTDSVIQNSENIKAYHSGEGHMPFRTGTGDIATCYSPRTSTESFAPRDSVGLAPQDSQASNILVMDHMIMTPEMPTMEPEGGLDDSGEHFFDAREAHSDENPSEGDGAVNKEEKDVNLRISGNYLILDGYDPVQESSTDEEVASSLTLQPMTGIPAVESTHQQQHSPQNTHSDGAISPFTPEFLVQQRWGAMEYSCFEIQSPSSCADSQSQIMEYIHKIEADLEHLKKVEESYTILCQRLAGSALTDKHSDKS | – | 448 arbitrary unit | mean AUC of decay of the FRET signal after agonist washout [3]: 462 arbitrary unit; mean AUC of decay of the FRET signal after agonist washout (Gα13(135)R128A; partners not purified): 495 arbitrary unit |
| LARG-Rshort (LARG amino acids 360-561) (domain or fragment, human, UniProt Q9NZN5 360-561, looked up, LARG, human, RH domain without the region N-terminal to it; source: HEK293T, transfected, in intact cells) TEHEQINGQCSCFQSIELLKSRPAHLAVFLHHVVSQFDPATLLCYLYSDLYKHTNSKETRRIFLEFHQFFLDRSAHLKVSVPDEMSADLEKRRPELIPEDLHRHYIQTMQERVHPEVQRHLEDFRQKRSMGLTLAESELTKLDAERDKDRLTLEKERTCAEQIVAKIEEVLMTAQAVEEDKSSTMQYVILMYMKHLGVKVKE | – | 380 arbitrary unit | – |
| LARG-PR (LARG amino acids 1-558) (domain or fragment, human, UniProt Q9NZN5 1-558, looked up, LARG, human, with the PDZ and RH domains; source: HEK293T, transfected, in intact cells) MSGTQSTITDRFPLKKPIRHGSILNRESPTDKKQKVERIASHDFDPTDSSSKKTKSSSEESRSEIYGLVQRCVIIQKDDNGFGLTVSGDNPVFVQSVKEDGAAMRAGVQTGDRIIKVNGTLVTHSNHLEVVKLIKSGSYVALTVQGRPPGSPQIPLADSEVEPSVIGHMSPIMTSPHSPGASGNMERITSPVLMGEENNVVHNQKVEILRKMLQKEQERLQLLQEDYNRTPAQRLLKEIQEAKKHIPQLQEQLSKATGSAQDGAVVTPSRPLGDTLTVSEAETDPGDVLGRTDCSSGDASRPSSDNADSPKSGPKERIYLEENPEKSETIQDTDTQSLVGSPSTRIAPHIIGAEDDDFGTEHEQINGQCSCFQSIELLKSRPAHLAVFLHHVVSQFDPATLLCYLYSDLYKHTNSKETRRIFLEFHQFFLDRSAHLKVSVPDEMSADLEKRRPELIPEDLHRHYIQTMQERVHPEVQRHLEDFRQKRSMGLTLAESELTKLDAERDKDRLTLEKERTCAEQIVAKIEEVLMTAQAVEEDKSSTMQYVILMYMKHLGVK | – | 464 arbitrary unit | – |
